The values that follow come from a protein production outcome set (Wang et al. 2014).

The series in a line: label from the status in PepcDB records.
Take “MNTFGIFLTISAYTFFSWAYSKKKTPILNPVLLSILLIALILKVGNISYEKYMESARFLSFLLGPAVVSLAIPLYKQINIVKEYKKEIATGIITGGTTAILSAVYILKAFNSPEILQRTIAPKSVTTAIAMGVSEKIGGIPELTAVLVILTGILGNALAPELLDFFKIKDRVARGLATGVSSHGLGTARIILEDELSGAVSGLAMALNGVYTAFLLPLIIELIV”: the protein production entry is given as “failed”. For the sequence “MNTKNLVFVALFSSIMGVLGLIPPIALSITPVPITLQSLGVMLAGGLLGSRLGALSQLIFLLIVGVGAPLLAGGRGGLGVFVGPSAGYLLGYIIGAFVIGYLIERLREVSIIKVLCINIIGGIFVVYVFGITVQAFLMDVSVWETMKVSAVFLPGDCIKAIIAAVLVTKLHRSLKHIITPALKNGKYTNAG”, the protein production entry is on record as “failed”. For the sequence “MNTLFFSRQQYWLALIFGCLLVFLAASLGHGQWLDYAQRVATLDEPLSRLRWIVGDISEVAFYKHELPALGLLLGACLAHWAQLRGYRWQGFAICYGSGLWPWVFTSSLLGLLLSHVLWGWTLASGTWQPTFVAFVSLPAAMVLLFGAGWRVTITGALLGALLVTPAGLLMVNYLCYPLQLPVVVGNVSGMAVASVVAFILCKRFPSWVRQCGEPTVVAPVVNQPDYGVVWTLRRVLADFSEAPFFGNELASLGLLLGVLLAYLLSPAALSYGSMLVMQMVAGQALASLVGVVLWRGQWKARGWYPTYIPIVSIVPAAVLTHGGSWQVVVASAVLGALVAPPLAVAITQRLPAYVHGYIGNVVSMAICTLGIVPVVGLLVGGEA”, the protein production result is given as “failed”. For “MNTLIIAKKEIVSAFRDKRTFLFMLAFPIVLIMILGTALTNAFDQQAAVGEVRVLYKDNSDGAFSQGFKTFVKEAKTSGVHFKKVLSDMDEKQEIKQGNYDAYLEIENSGIKLYQMDKNSMKNSIIQGMLTAFANRYNAAAEIIKAAPEQAGAVLGDAPGDNYIKETSLSSDRKPSSMDYYAVAMTTLIALYSALSASYLIRGERLRKTADRLIAAPVHKGEIFAGKLIGNLVTNGLCIFAVVAVSKYVFKAYWGEHLGLVAAVLFSIVLFAVCLGLGVSYLTRTGEAAVAIINVLIPLVAFFGGAYFPVDDAEGVLALITDLSPLAWTNEAIMNIIFADDLAAGLPAILLNIGLSLLFLLIAVVSLQRREGL” the value was “failed”. For “MNTLKKAFEILDFIVKNPGDVSVSEIAEKFNMSVSNAYKYMVVLEEKGFVLRKKDKRYVPGYKLIEYGSFVLRRFNIRDIAHDHLVDIMKRTGETVHLILKDGFEGVYIDKVEGEQSIPMVSRLGMKVDLYSTASGKSILAFVPEKELKEYLKIVELKPKTPNTITNPRVLKRELEKIRKRGYAVDNEENEIGIMCVGVPIFDHNGYPVAGVSISGVARKFTEEKIEEYSDVLKEKAEEISRKLGY” the value was “not failed”; for “MNTLRTAMLLAAMTALFMGVGFLIGGSGGMMIALLIAAGTNLFSYWNADKMVLSMNRAVEVDEKNAPEYYAIVQALAKQAGLPMPRTYLIDNPQPNAFATGRNPQNAAVAASTGLLQRLTHEEVAAVMAHELAHVQHRDTLTMTIVATFAGAISMLGNFAFFLGGNRDNNPFGFVGVLAAMIVAPFAAMIVQMAVSRTREYEADRRGAEICGHPLWLASALDKIARGAERIPNPDAERNPAMAHLFIINPLHGERMDNLFSTHPSTDNRIAALQEMAQQMAGGTQAAPRPTPRQAGEQQPSGPWGQAPQAEQPAEPERPKANPWGRNPTGPKGRWS”, “failed”; for “MNTRPFYFGLIFIAIIAILANYLGNTDFSHHYHISALIIAILLGMAIGNTIYPQFSTQVEKGVLFAKGALLRTGIVLYGFRLTFGDIADVGLNAVVTDAIMLISTFFFTALLGIRYLKMDKQLVYLTGAGCSICGAAAVMAAEPVTKAESHKVSVAIAVVVIFGTLAIFTYPLFYTWSQHLINAHQFGIYVGSSVHEVAQVYAIGENIDPIVANTAVISKMIRVMMLAPFLLMLSWLLTRSNGVSENTSHKITIPWFAVLFIGVAIFNSFDLLPKELVKLFVEIDSFLLISSMAALGLTTQASAIKKAGLKPFVLGILTYLWLVVGGFLVNYGISKLI”, “failed”.

“MNTVCTACMATNRLPEERIDDGAKCGRCGHSLFDGEVINATAETLDKLLQDDLPMVIDFWAPWCGPCRSFAPIFAETAAERAGKVRFVKVNTEAEPALSTRFRIRSIPTIMLYRNGKMIDMLNGAVPKAPFDNWLDEQLSRDPNS”: the protein production entry was “not failed”. For “MNVDVLIGEILTLSMMAFALGMDAFSVGLGMGMAKLKRNQVFQIGVIIGLFHVIMPLGGMIAGQFLSGALGALAGYIGGALLLVLGIQMIVASFNKSGEQIISPHGFGLFVFAVGVSLDSFSVGLSLGLYGTKPILTIFLFGLFSMVLTWAGLLLGKKVQTWLGAYSEALGGAILLSFGLKLLLPI” the value was “failed”. For “MNVFARSSVLAAEMIDVFDRTHTEKELVFQSKELCRDFIHSRITREGLSWSKVELDLPEPRGVLVDVSVVLLKLGDELECMRPYVYRNIAKQLNISVSVEAVVSDAFLSVATEVIAMGITWGKVVAIYAVAAGLAVDCVRLGHPVMVHTIVDSLGEFVRRSLVPWLKKRGGWVDILKCVVNMDSRAHVHWLSTAVLTWREFIKTMYVYLTK” the value was “failed”; for “MNVINETANVLKLETGSVTSAKGFSAVGIHTGVKRKRKDLGAIVCEVPASSAAVYTLNKVQAAPLKVTQESIAVEGKLQAMIVNSGIANACTGKRGLDDAYTMRAVGAETFHIPEHYVAVTSTGVIGEFLPMDVITNGIRQLKPEATIEGAHAFNEAILTTDTVEKHTCYQTIVNGKTVTVGGVAKGSGMIHPNMATMLSFVTTDANIDHGHLQGALSAITNETFNRITVDGDTSTNDMVVVMASGLAENEALTPEHPDWANFYKALQLACEDLAKQIARDGEGATKLIEVEVTGAANDQEAGMVAKQIVGSDLVKTAIYGADANWGRIICAIGYSGCEVNQETIDIAIGPIVTLKQSEPTGFSEEEATAYLKEADPVKISVNLHIGNGTGKAWGCDLTYDYVRINAGYRT”, “not failed”; for “MNVIYPLAVPKGRRLSCEVCEAPAERMCTACTVTYYCGPVHQKADWDSIHAKICQLLIPLRTTMPFYNSEEERQHGLQQLQRRQKHLIEFCYTVAQKYLFEGRHEDAVPAALHSLRFRMNVHGLSSVELVPAYLLLAEASLGLGRIVQAEEYLSQAQWTVLKSTDCSNATHSLLHRNLGLLYIAKKNLDEARYHLANDIYFASCAYGTEDIRTSGGYFHLANIFYGLKKMELADTLYTKVSEIWYTYLNSHYQALLEARSQQTDLLGKQFVNDTGLDEAQEAEAIRILTSTLIIQESTSTKAPQKSILILKTLSILYYLMLECSKAKEYAMKALSLAETYVSEEEQRFIQELLSVISAEEKQP”, “failed”. For “MNVLRRFHAWRNQAPLWWWVGLRMSALAVVTMMVIAFGMWCYFNLRYSLILSNVPAEPRAEISQLIEQPRANQARLWELFQRYYDIENFLPGLANPDWWMLGAMMTISVPVILFCGLLASRPLSRQFSQVAFAAHRVSDGDFGARAQVVRGAPDELTALADDFNTMSGRLQQYERELRDSSAMLAHELRTPLNAAMGRVQGMLDDVFPREPEQLRLVHRQLEQINRLIGDLHLVSLARAGQLVLEPESVELRELVAERIEWAGPALREAQMTIHYPTHPALRLHADRHRLGQVLSILIDNALRYAAAGKLLEIEVRRDGTGVQLTVGDRGPGVAPAQLPHLLDRFWRADSSRARHSGGSGLGLAIASAICQAHDGQLVVSNRPGGGLLASVQLPLGR”, the protein production entry is “failed”.

Consider “MNVLSLGSSSGVVWGRVPITAPAGAATGVTSRADAHSQMRRYAQTGPTAKLSSAPMTTMWGAPLHRRWRGSRLRDPRQAKFLTLASLKWVLANRAYTPWYLVRYWRLLRFKLANPHIITRGMVFLGKGVEIHATPELAQLEIGRWVHIGDKNTIRAHEGSLRFGDKVVLGRDNVINTYLDIEIGDSVLMADWCYICDFDHRMDDITLPIKDQGIIKSPVRIGPDTWIGVKVSVLRGTTIGRGCVLGSHAVVRGAIPDYSIAVGAPAKVVKNRQLSWEASAAQRAELAAALADIERKKAAR”, for which the protein production entry was “failed”. For “MNVPILPTISTSCIVISAILVAIGWALIWKRQVHKHKNIMLWAAFFALTFFIIYAARTIFIGNTAFGGPSSIKVYYTIFLVFHIILATVGGVLGLIQIILAFKDKLHIHRKIGPWASIIWFFTAITGVAVYVLLYVLYPGGETTSLLKATLGL” the value was “failed”.
